Key:
[1] = molecular target: T1, human iRhom2, endogenously expressed (human, UniProt Q6PJF5 1-856); experiment: cell-based or functional assay
T1 sequence: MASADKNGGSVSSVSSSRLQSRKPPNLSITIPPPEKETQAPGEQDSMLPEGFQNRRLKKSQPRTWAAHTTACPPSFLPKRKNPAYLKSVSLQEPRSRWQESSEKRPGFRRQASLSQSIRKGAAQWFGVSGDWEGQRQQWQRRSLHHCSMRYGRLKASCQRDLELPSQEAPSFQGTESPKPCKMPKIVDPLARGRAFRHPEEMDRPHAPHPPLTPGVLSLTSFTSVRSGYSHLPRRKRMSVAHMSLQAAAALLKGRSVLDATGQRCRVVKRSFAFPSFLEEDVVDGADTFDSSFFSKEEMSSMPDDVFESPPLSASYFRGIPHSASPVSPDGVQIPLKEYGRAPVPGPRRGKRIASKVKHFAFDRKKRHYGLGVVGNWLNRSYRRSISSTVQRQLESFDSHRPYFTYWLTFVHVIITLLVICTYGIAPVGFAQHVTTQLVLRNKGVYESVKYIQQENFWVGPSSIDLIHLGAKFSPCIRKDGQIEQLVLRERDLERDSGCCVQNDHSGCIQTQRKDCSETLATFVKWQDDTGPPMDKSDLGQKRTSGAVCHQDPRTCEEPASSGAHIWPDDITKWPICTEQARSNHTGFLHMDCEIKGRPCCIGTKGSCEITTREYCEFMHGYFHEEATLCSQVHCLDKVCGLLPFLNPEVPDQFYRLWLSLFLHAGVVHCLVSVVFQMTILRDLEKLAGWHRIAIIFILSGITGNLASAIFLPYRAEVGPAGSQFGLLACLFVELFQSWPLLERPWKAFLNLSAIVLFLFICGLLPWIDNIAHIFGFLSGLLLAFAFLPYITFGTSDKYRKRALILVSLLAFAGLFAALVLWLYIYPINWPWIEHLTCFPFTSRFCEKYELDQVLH

miR2-FL-WT-FLAG = molecular target: T2, miR2-FL-WT-FLAG (mouse, UniProt Q80WQ6 1-827); experiment: FACS, MEF-DKO-miR2-FL-WT-FLAG cells
T2 construct: on MEF-DKO cells
T2 sequence: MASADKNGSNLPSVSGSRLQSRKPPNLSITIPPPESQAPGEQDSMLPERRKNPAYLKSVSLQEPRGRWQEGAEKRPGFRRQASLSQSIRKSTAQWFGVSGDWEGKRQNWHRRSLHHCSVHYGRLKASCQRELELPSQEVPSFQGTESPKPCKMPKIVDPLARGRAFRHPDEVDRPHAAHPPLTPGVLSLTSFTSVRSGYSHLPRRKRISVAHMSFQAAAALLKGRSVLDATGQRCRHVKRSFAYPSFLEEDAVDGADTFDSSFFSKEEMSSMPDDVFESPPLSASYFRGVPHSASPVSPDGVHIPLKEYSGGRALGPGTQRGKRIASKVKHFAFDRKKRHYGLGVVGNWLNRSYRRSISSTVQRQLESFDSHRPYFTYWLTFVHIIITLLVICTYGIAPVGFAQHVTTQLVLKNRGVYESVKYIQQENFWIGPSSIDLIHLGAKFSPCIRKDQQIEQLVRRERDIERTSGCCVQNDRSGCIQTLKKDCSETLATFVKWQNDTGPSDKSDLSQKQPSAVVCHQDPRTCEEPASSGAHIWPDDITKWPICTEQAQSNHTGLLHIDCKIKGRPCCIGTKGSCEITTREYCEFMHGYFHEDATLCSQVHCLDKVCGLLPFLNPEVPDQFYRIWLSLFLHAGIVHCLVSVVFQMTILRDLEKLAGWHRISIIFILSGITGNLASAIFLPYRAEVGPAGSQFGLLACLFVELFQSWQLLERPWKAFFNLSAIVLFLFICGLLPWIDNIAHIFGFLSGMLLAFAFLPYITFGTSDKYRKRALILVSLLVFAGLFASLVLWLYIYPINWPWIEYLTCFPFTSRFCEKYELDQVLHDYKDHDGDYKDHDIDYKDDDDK
Protocol: In brief, immortalized MEF-DKO-EV control cells, MEF-DKO-hiR2-FL-WT-FLAG cells and MEF-DKO-miR2-FL-WT-FLAG cells were harvested with 10 mM EDTA in PBS, washed and resuspended in FACS buffer (PBS, 3% FBS, 0.05% sodium azide), and seeded in Nunc U-bottom 96-well plates (Thermo Fisher Scientific, USA) at approximately 3×10⁵ cells per well. To pellet cells and remove supernatants, the plates were centrifuged at 1,500 rpm and 4° C. for 3 minutes. For primary staining, cells were resuspended in 100 μl per well of either FACS buffer alone (controls), mouse monoclonal anti-FLAG IgG (Sigma-Aldrich, USA) at 3 μg/ml FACS buffer or the antibodies of the invention also at 3 μg/ml FACS buffer and incubated on ice for 1 hour. Afterwards, plates were centrifuged at 1,500 rpm and 4° C. for 3 minutes and washed twice with 200 μl per well of FACS buffer. For secondary staining, cells were spun down and resuspended in 100 μl per well of PE-conjugated goat anti-mouse IgG F(ab′)2 detection fragment (Dianova, Germany) diluted 1:100 in FACS buffer. Protected from light, the cell suspensions were incubated on ice for 1 hour. Plates were then centrifuged at 1,500 rpm and 4° C. for 3 minutes and washed three times with 200 μl per well of FACS buffer. Finally, cells were resuspended in 150 μl per well of FACS buffer and analyzed using a BD Accuri™ C6 Plus flow cytometer (Becton Dickinson, Germany).

B1: antibody 34 (antibody, V domains shown)
VH: QVTLKESGPGILQPSQTLSLTCSFSGFSLSTFSLGVGWIRQSSGKGLEWLAHIWWDDEKYYNPALKSRLTISKDTSKNQVFLKIANVDAADTATYYCARAYYSKSYYALDYWGQGTSVTVSS
VL: DIQMTQSPSSLSASLGERVSLTCRASQEISGYLSWLQQKPDGTIKRLIYAASTLDSGVPKRFSGSRSGSDYSLAISSLESEDFADYYCLQYANFPFTFGSGTKLEIK
notes: mouse IgG, kappa light chain; also called clone #34; purified antibody 34
LPS-induced TNFα release from THP-1 cells, percent inhibition, 10 µg/ml, hybridoma-purified [1]: 27.3% | LPS-induced TNFα release from THP-1 cells, percent inhibition, recombinant antibody [1]: 73.8% | PMA-induced HB-EGF release from THP-1 cells, percent inhibition, 3 µg/ml [1]: 64.2% | PMA-induced HB-EGF release from U-937 cells, percent inhibition [1]: 98.2% | PMA-induced IL-6R release from THP-1 cells, percent inhibition, 1 µg/ml [1]: 71.1% | PMA-induced IL-6R release from U-937 cells, percent inhibition, 1 µg/ml [1]: 69.3% | PMA-induced IL-6R release from U-937 cells, percent inhibition, 3 µg/ml [1]: 74.6% | PMA-induced TNFα release from U-937 cells, percent inhibition, 1 µg/ml [1]: 68.6% | PMA-induced TNFα release from U-937 cells, percent inhibition, 3 µg/ml [1]: 79.9% | binding result (miR2-FL-WT-FLAG): no binding (tested: 3 µg/ml)

B2: antibody 46 (antibody, V domains shown)
VH: QVTLKESGPGILQPSQTLSLTCSFSGFSLSTFGMGVGWIRQPSGKGLEWLAHIWWDDDNYYNQALKSRLTISKDNTKNQVFLNIANVDTADTATYYCARIRSYDYDVRYAMDYWGQGTSVTVSS
VL: DIKMTQSPSSMYASLRERVTITCKASQDINSYLSWFQQKPGKSPKTLIYRANRLVDGVPSRFSGSGSGQDYSLTISSLEYEDLGIYYCQQYYEFPLTFGAGTRLELK
notes: mouse IgG, kappa light chain; also called clone #46
LPS-induced TNFα release from THP-1 cells, percent inhibition, recombinant antibody [1]: 36.1% | binding result (miR2-FL-WT-FLAG): no binding (tested: 3 µg/ml)

B3: antibody 43 (antibody, V domains shown)
VH: QVALKESGPGILQPSQTLSLTCSFSGFSLSTFGMGVGWIRQSSGKGLEWLANIWWDDDKYYNPALKSRLTISKDASKNQAFLKIANVDTADTATYYCARIGNYGSNYWYFDVWGTGTTVTVSS
VL: QIVLTQSPAIMSASPGERVTMTCSANSRISYMYWYQQKPGSSPRLLIYDTSNLASGVPVRFSGSGSGTSYSLTISRMEAEDAATYNCQQWSSYPLTFGAGTKLELK
notes: mouse IgG, kappa light chain; also called clone #43; purified antibody 43
LPS-induced TNFα release from THP-1 cells, percent inhibition, 10 µg/ml, hybridoma-purified [1]: 74.8% | LPS-induced TNFα release from THP-1 cells, percent inhibition, recombinant antibody [1]: 78.5% | PMA-induced IL-6R release from THP-1 cells, percent inhibition, 1 µg/ml [1]: 72.9% | PMA-induced IL-6R release from U-937 cells, percent inhibition, 1 µg/ml [1]: 76.1% | PMA-induced TGFα release from PC3 cells, percent inhibition, 1 µg/ml [1]: 12.4% | PMA-induced TNFα release from U-937 cells, percent inhibition, 1 µg/ml [1]: 78.3% | binding result (miR2-FL-WT-FLAG): no binding (tested: 3 µg/ml)

B4: antibody 57 (antibody, V domains shown)
VH: QVTLKESGPGILQPSQTLSLTCSFSGFSLSTFGMGVGWIRQPSGKGLEWLAHIWWDDDKYYNPALKSRLTISKDTSKNQIFLKIANVDTADSATFYCARIENYGSNYWYFDVWGTGTTVTVSS
VL: QIVLTQSPAIMSASPGEKVTMTCSASSSVSYMYWYQQKPGSSPRVLIYDTSNLASGVPVRFSGSGSGTSYSLTVSRMEAEDAATYYCQQWNSYPLTFGAGTKLELK
notes: mouse IgG, kappa light chain; also called clone #57
LPS-induced TNFα release from THP-1 cells, percent inhibition, recombinant antibody [1]: 59.7% | binding result (miR2-FL-WT-FLAG): no binding (tested: 3 µg/ml)

B5: antibody 54 (antibody, V domains shown)
VH: QVTLKESGPGILQPSQTLSLTCSFSGFSLSTFGLGVGWIRQPSGKGLECLAHIWWDDDKYSNPALKSRLTISKDTSKNQVFLKIANVDSADTATYFCARILNYGSNYWYFDVWGTGTTVTVSS
VL: QIVLTQSPALMSASPGEKVTMTCSASSSISYMYWYQQKPGSSPRLLIYDTSNLASGVPVRFSGSGSGTSFSLTVSRMEAEDAATYYCQQWNSYPLTFGAGTKLELK
notes: mouse IgG, kappa light chain; also called clone #54
LPS-induced TNFα release from THP-1 cells, percent inhibition, recombinant antibody [1]: 67.9% | binding result (miR2-FL-WT-FLAG): no binding (tested: 3 µg/ml)

B6: antibody 44 (antibody, V domains shown)
VH: QVTLKESGPGILQPSQTLSLTCSFSGFSLSTFGMGVGWIRQPSEKGLEWLAHIWWDDDKYYNPALKSRLTISKDTSKNQIFLKITNVDTAETATYYCSRIGNYGSNYWYFDVWGTGTTVTVSS
VL: QIVLTQSPAVMSASPGEKVTMTCTASSSVYYMYWYQQTPGSSPRLLIYDTSNLASGVPVRFSGSGSGTSYSLTISRMEAEDAATYYCQQWNTYPLTFGAGTKLELK
notes: mouse IgG, kappa light chain; also called clone #44; purified antibody 44
LPS-induced TNFα release from THP-1 cells, percent inhibition, 10 µg/ml, hybridoma-purified [1]: 32.2% | LPS-induced TNFα release from THP-1 cells, percent inhibition, recombinant antibody [1]: 73.2% | PMA-induced HB-EGF release from THP-1 cells, percent inhibition, 3 µg/ml [1]: 67.5% | PMA-induced HB-EGF release from U-937 cells, percent inhibition [1]: 100% | PMA-induced IL-6R release from THP-1 cells, percent inhibition, 1 µg/ml [1]: 73% | PMA-induced IL-6R release from U-937 cells, percent inhibition, 1 µg/ml [1]: 71.8% | PMA-induced IL-6R release from U-937 cells, percent inhibition, 3 µg/ml [1]: 82% | PMA-induced TGFα release from PC3 cells, percent inhibition, 1 µg/ml [1]: 14.1% | PMA-induced TNFα release from U-937 cells, percent inhibition, 1 µg/ml [1]: 76.5% | PMA-induced TNFα release from U-937 cells, percent inhibition, 3 µg/ml [1]: 86.3% | binding result (miR2-FL-WT-FLAG): no binding (tested: 3 µg/ml)

B7: antibody 49 (antibody, V domains shown)
VH: QVTLKESGPGILQPSQTLSLTCSFSGFSLSTFGMGVGWIRQPSGKGLEWLAHIWWDDDKYYNPALQSRLTVSKDTAKNQVFLKIANVDTADTAIYYCARVGNYGSNYWYFAVWGTGTTVTVSS
VL: QIVLTQSPAIMSASPGEKVTMTCSASSSVSYMYWYQQKPGSSPRLLIYDTSNLASGVPVRFSGSGSGTSYSLTISRMEAEDAATYYCQQWNSYPLTFGAGTKLELK
notes: mouse IgG, kappa light chain; also called clone #49
LPS-induced TNFα release from THP-1 cells, percent inhibition, recombinant antibody [1]: 59.9% | binding result (miR2-FL-WT-FLAG): no binding (tested: 3 µg/ml)

B8: antibody 56 (antibody, V domains shown)
VH: QVTLKESGPGILQPSQTLSLTCSFSGFSLSTFGMGVGWIRQPSGKGLEWLTNIWWDDDKYYNSVLKSRLTISKDTSKNQVFLKIANVDTADTATYYCARIAAYGSNYWYFDVWGTGTTVTVSS
VL: QIVLTQSPAIMSASPGEKVTMTCSASSSVSYMYWYQQKPGSSPRVLIYDTSNLSSGVPVRFSGSGSGTSYSLTISRMEAEDAATYYCQQWSSYPLTFGAGTKLELK
notes: mouse IgG, kappa light chain; also called clone #56
LPS-induced TNFα release from THP-1 cells, percent inhibition, recombinant antibody [1]: 65.8% | binding result (miR2-FL-WT-FLAG): no binding (tested: 3 µg/ml)

From US20240287172A1 (SCIRHOM, published 2024)
